Source: patent US20240360242A1 (KISOJI BIOTECHNOLOGY, published 2024)
Substitutions are numbered along the chain they refer to. Blank lines part the entries; values can stand above or below the binder they belong to.

Assays:
Experiment in all cases: flow cytometry, 100 nM antibody, transiently transfected HEK cells, APC anti-human Fc
[1] = target: T1, HEK-TROP2 Δ27-104 (human, UniProt P09758)
T1 sequence (membrane protein on transfected HEK cells, looked up): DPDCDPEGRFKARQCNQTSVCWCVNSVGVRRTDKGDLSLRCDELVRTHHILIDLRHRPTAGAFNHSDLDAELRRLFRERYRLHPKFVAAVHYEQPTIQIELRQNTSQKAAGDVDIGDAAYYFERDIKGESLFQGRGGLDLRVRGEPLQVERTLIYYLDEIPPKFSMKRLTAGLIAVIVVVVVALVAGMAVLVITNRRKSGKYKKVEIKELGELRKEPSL
Method: (§1) To determine the effect of TROP2 truncations on the binding ability of anti-TROP2 sdAbs, the HEK parental cells were transiently transfected with human TROP2 mutants by lipofectamine. 24 hours after transfection, cells were collected and stained with anti-TROP2 antibodies (FIG. 13A and FIG. 13B). In brief, 1×10⁵ cells were incubated with an Fc receptor blocking antibody (1/100 dilution) for 10 minutes at room temperature. Anti-TROP2 antibodies were diluted in FACS staining buffer to 100 nM and added and incubated with cells for 30 minutes on ice. After washing three times with FACS staining buffer, APC-conjugated secondary antibodies recognizing the human Fc region (Biolegend, Cat #410712) were mixed with cells. After staining for 30 minutes, cells were washed three times, followed by resuspension into 100 μL of 7-Amino-Actinomycin D (7-AAD) solution (BD Biosciences, Cat #559925).

[2] = target: T2, HEK-TROP2 Δ27-114 (human, UniProt P09758)
T2 construct: deletion of residues 27-114, transiently expressed on HEK cells
T2 sequence (membrane protein on transfected HEK cells, looked up): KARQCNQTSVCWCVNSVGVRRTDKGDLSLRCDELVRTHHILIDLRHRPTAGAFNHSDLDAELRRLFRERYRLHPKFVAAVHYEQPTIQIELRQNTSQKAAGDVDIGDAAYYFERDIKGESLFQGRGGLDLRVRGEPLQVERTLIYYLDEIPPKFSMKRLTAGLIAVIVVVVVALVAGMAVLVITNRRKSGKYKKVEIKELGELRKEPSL
Method: as §1

[3] = target: T3, HEK-TROP2 Δ27-126 (human, UniProt P09758)
T3 construct: deletion of residues 27-126, transiently expressed on HEK cells
T3 sequence (membrane protein on transfected HEK cells, looked up): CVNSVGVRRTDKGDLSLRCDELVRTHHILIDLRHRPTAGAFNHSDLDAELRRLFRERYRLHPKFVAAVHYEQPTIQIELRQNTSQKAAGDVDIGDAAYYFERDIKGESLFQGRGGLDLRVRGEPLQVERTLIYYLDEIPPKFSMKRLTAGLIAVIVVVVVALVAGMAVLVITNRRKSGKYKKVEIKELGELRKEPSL
Method: as §1

[4] = target: T4, HEK-TROP2 Δ27-36
T4 construct: also called TROP2 delta 27-36
T4 membrane protein on transfected HEK cells: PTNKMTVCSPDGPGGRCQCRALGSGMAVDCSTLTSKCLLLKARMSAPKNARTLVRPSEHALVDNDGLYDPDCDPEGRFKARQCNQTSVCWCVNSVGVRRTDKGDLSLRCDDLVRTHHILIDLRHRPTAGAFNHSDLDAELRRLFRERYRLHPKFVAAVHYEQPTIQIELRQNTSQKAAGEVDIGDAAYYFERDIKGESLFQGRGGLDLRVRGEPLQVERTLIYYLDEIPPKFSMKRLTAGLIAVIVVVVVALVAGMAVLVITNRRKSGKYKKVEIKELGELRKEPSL
Method: as §1

[5] = target: T5, HEK-TROP2 Δ27-44
T5 construct: also called TROP2 delta 27-44
T5 membrane protein on transfected HEK cells: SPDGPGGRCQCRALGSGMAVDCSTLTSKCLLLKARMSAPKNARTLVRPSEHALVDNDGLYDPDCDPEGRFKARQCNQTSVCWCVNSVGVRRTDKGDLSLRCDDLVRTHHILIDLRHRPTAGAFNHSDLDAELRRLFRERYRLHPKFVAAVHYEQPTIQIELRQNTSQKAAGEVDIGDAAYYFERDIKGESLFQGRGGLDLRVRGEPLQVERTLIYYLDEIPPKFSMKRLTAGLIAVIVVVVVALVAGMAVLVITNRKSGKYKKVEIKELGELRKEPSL
Method: as §1

[6] = target: T6, HEK-TROP2 Δ27-73 (human, UniProt P09758)
T6 construct: deletion of residues 27-73, transiently expressed on HEK cells
T6 sequence (membrane protein on transfected HEK cells, looked up): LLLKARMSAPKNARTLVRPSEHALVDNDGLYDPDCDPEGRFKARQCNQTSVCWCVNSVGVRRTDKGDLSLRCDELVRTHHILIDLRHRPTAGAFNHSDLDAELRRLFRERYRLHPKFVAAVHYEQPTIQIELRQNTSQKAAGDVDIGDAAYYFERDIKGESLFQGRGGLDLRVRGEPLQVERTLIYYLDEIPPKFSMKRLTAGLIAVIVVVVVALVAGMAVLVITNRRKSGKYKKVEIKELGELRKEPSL
Method: as §1

[7] = target: T7, HEK-TROP2 Δ27-85 (human, UniProt P09758)
T7 construct: deletion of residues 27-85, transiently expressed on HEK cells
T7 sequence (membrane protein on transfected HEK cells, looked up): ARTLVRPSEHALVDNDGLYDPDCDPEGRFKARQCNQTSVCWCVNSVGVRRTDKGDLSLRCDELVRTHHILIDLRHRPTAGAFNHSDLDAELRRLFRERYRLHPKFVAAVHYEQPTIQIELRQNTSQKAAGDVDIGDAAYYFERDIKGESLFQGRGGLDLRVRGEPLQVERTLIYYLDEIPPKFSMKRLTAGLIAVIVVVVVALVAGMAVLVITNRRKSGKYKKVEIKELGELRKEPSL
Method: as §1

- binding result [1]: no binding (tested: 100 nM)
- binding result [2]: no binding (tested: 100 nM)
- binding result [3]: no binding (tested: 100 nM)
- binding result [4]: no binding (tested: 100 nM)
- binding result [5]: no binding (tested: 100 nM)
- binding result [6]: no binding (tested: 100 nM)
- binding result [7]: no binding (tested: 100 nM)
B1: KD007 (antibody, human IgG1, V domains shown)
VH: QVQLQESGGGLVQPGGSLRLSCAASGFAFSFYAMAWYRQAPGKQRDMVATITAYGNTNYADSVKGRFTTSRDNAKNTVYLQMNSLKPEDTAVYVCNANLPSASHNYWGQGTQVTVSS
notes: also called anti-TROP2 sdAb KD007

- binding result [1]: no binding (tested: 100 nM)
- binding result [2]: no binding (tested: 100 nM)
- binding result [3]: no binding (tested: 100 nM)
- binding result [4]: binds
- binding result [5]: binds
- binding result [6]: no binding (tested: 100 nM)
- binding result [7]: no binding (tested: 100 nM)
B2: KD002 (antibody, human IgG1, V domains shown)
VH: QVQLQESGGGMVQVGGSLRLSCAASGFPFSSADMSWVRQAPGKGPEWVSYINADGSKTYYPDSVKGRFTISRDNAKNTLYLLMNNLKPEDTALYRCARAKLTDTHYVEDYWGQGTQVTVSS
notes: also called anti-TROP2 sdAb KD002

- binding result [1]: no binding (tested: 100 nM)
- binding result [2]: no binding (tested: 100 nM)
- binding result [3]: no binding (tested: 100 nM)
- binding result [4]: binds
- binding result [5]: binds
- binding result [6]: no binding (tested: 100 nM)
- binding result [7]: no binding (tested: 100 nM)
B3: KD003 (antibody, human IgG1, V domains shown)
VH: B2 VH with V14P, P28T, S31N, A32Y, D54G, K57N, Y59D, T78M
notes: also called anti-TROP2 sdAb KD003

- binding result [1]: no binding (tested: 100 nM)
- binding result [2]: no binding (tested: 100 nM)
- binding result [3]: no binding (tested: 100 nM)
- binding result [4]: binds
- binding result [5]: binds
- binding result [6]: no binding (tested: 100 nM)
- binding result [7]: no binding (tested: 100 nM)
B4: KD001 (antibody, human IgG1, V domains shown)
VH: QVQLQESGGGMVHPGGSLRLSCAASGFTFSGSDMSWVRQAPGKGPEWVSYITSGGTTYYPDSVKGRFTISRDNAKNTLYLQMNSLTPDDTALYRCAKARLTDSHYVEDAWGQGTQVTVSS
notes: also called anti-TROP2 sdAb KD001

- binding result [1]: no binding (tested: 100 nM)
- binding result [2]: no binding (tested: 100 nM)
- binding result [3]: no binding (tested: 100 nM)
- binding result [4]: binds
- binding result [5]: binds
- binding result [6]: no binding (tested: 100 nM)
- binding result [7]: no binding (tested: 100 nM)
B5: KD005 (antibody, human IgG1, V domains shown)
VH: B4 VH with M11L, H13E, P14A, T86K, A98S
notes: also called anti-TROP2 sdAb KD005

- binding result [1]: no binding (tested: 100 nM)
- binding result [2]: no binding (tested: 100 nM)
- binding result [3]: no binding (tested: 100 nM)
- binding result [4]: binds
- binding result [5]: binds
- binding result [6]: no binding (tested: 100 nM)
- binding result [7]: no binding (tested: 100 nM)
B6: KD004 (antibody, human IgG1, V domains shown)
VH: B4 VH with M11L, H13Q, G16R, S53G, G54S, I69T, T77M, T86K
notes: also called anti-TROP2 sdAb KD004
